For one data set, the target named is Hfq-65 (Escherichia coli, UniProt P0A6X3 1-65, del66-102). Put plainly: EMSA. In general terms: A gel shift assay detects complexes by their altered migration in electrophoresis.
The target of the next data set is Hfq-75 (Escherichia coli, UniProt P0A6X3 1-75, del76-102). As to the kind of experiment: EMSA.

B1: rA18 (ssRNA)
RNA: AAAAAAAAAAAAAAAAAA
Consider B1, for which the binding result with Hfq-65 and with Hfq-75 was “binds” in each case.

For the origin of these results see paper PMC3072145.
